According to patent US20230310432A1 (JULIUS-MAXIMILIANS-UNIVERSITÄT WÜRZBURG, priority 2017, published 2023):

Key:
[1] = system: CD8+ T cells expressing a ROR1 CAR with 4-1BB costimulatory domain; assay: IFN-γ ELISA, co-culture with RCH-ACV; assay type: cell-based, human; conditions: […] nilotinib; 20 h; 1310 pg/ml by untreated CAR-T cells
[2] = system: CD8+ T cells expressing a CD19 CAR with 4-1BB costimulation; assay: CFSE proliferation assay, co-culture with K562/CD19; assay type: cell-based, human; conditions: dexamethasone, any given concentration; 24 h-pretreatment or at start of co-culture; 72 h
[3] = system: CD8+ T cells expressing a CD19 CAR with 4-1BB costimulation; assay: Cytokine production and secretion (IFN-γ, IL-2 ELISA), co-culture with K562/CD19; assay type: cell-based, human; conditions: any given concentration of dexamethasone; pre-treated or during assay only
[4] = system: CD8+ T cells expressing a CD19 CAR with 4-1BB costimulation; assay: Bioluminescence-based cytotoxicity assay, K562/CD19 target cells; assay type: cell-based, human
Protocol: Cytotoxicity: Target cells were stably transduced with ffluc_GFP and incubated in triplicate wells at 1×10^4 cells/well with effector T cells at an effector to target (E:T) ratio of 5:1. D-luciferin substrate (Biosynth, Staad, Switzerland) was added to the co-culture to a final concentration of 0.15 mg/ml and the decrease in luminescence signal in wells that contained target cells and T-cells was measured using a luminometer (Tecan, Mannedorf, Switzerland). Specific lysis was calculated using the standard formula.
The inventors prepared CD8+ CAR-T cell lines from n=3 healthy donors. In each of the T-cell lines, the inventors enriched CAR-expressing T cells to >90% purity using the EGFRt-transduction marker. The inventors analyzed cytolytic activity of CD8^+ CAR-T cells in a bioluminescence-based cytotoxicity assay using K562 that the inventors had transduced with either CD19 (for testing CD19 CAR-T cells) or ROR1 (for testing ROR1 CAR-T cells) as target cells. Dasatinib was added to the assay medium at the beginning of the assay.
The inventors prepared CD8^+ CAR-T cell lines from n=3 healthy donors. In each of the T-cell lines, the inventors enriched CAR-expressing T cells to >90% purity using the EGFRt-transduction marker. The inventors analyzed cytolytic activity of CD8^+ CAR-T cells in a bioluminescence-based cytotoxicity assay using K562 target cells that the inventors had transduced with CD19.
The CAR-T cell cytolytic activity was analyzed at 1-hour intervals for 10 hours.
The inventors analyzed cytolytic activity of CD8+ CAR-T cells in a bioluminescence-based cytotoxicity assay.
The inventors prepared CD8^+ CD19 CAR-T cell lines with a 4-1BB costimulatory domain from one healthy donor. In the T-cell line, the inventors enriched CAR expressing T cells to >90% purity using the EGFRt-transduction marker. The inventors analyzed cytolytic activity of CD8^+ CAR-T cells in a 4-hour bioluminescence-based cytotoxicity assay using K562 that the inventors had transduced with CD19 as target cells to assess the influence of a panel of Src-kinase inhibitors on the cytolytic function of CAR-T cells. Src-kinase inhibitors were added to the assay medium at the beginning of the assay over a 4-log concentration range.

[5] = system: CAR-T cells co-expressing the iCasp suicide gene; assay: Elimination of iCasp+ T cells; assay type: cell-based, human; conditions: dimerizer (10 nM AP20187) without dasatinib; 24 hours
Protocol: After 24 hours, cells were labeled with anti-CD3 mAB and analyzed by flow cytometry for the presence of iCasp+ T cells.
After 24 hours, cells were labeled with anti-CD3 mAB and analyzed by flow cytometry for the presence of iCasp^+ T cells.

[6] = target: human SLAMF7 (human) (UniProt Q9NQ25); assay: cell-based or functional assay
[7] = target: human ROR1 (human) (UniProt Q01973); assay: cell-based or functional assay

Cc1cn(-c2cc(NC(=O)c3ccc(C)c(Nc4nccc(-c5cccnc5)n4)c3)cc(C(F)(F)F)c2)cn1 [nilotinib]
production and secretion of IFN-γ [1]: 480 pg/mL

C[C@@H]1C[C@H]2[C@@H]3CCC4=CC(=O)C=C[C@]4(C)[C@@]3(F)[C@@H](O)C[C@]2(C)[C@@]1(O)C(=O)CO [dexamethasone]
remaining proliferation compared to untreated CAR-T cells [2]: less than 26% | residual specific IFN-γ secretion compared to non-treated CAR-T cells [3]: more than 43% | residual specific IL-2 secretion compared to non-treated CAR-T cells [3]: less than 17% | specific lysis of target cells ([4]; dexamethasone added at the beginning of the assay, any of the applied dosages (0.1-100 μM), 91% non-treated): > 87% | specific lysis of target cells ([4]; pre-treated for 24 h with dexamethasone, all tested doses, t=10 h, 91% non-treated): > 45%

CC[C@H](C(=O)N1CCCC[C@H]1C(=O)O[C@H](CCc1ccc(OC)c(OC)c1)c1cccc(OCC(=O)NCC(CNC(=O)COc2cccc([C@@H](CCc3ccc(OC)c(OC)c3)OC(=O)[C@@H]3CCCCN3C(=O)[C@@H](CC)c3cc(OC)c(OC)c(OC)c3)c2)CN(C)C)c1)c1cc(OC)c(OC)c(OC)c1 [dimerizer, AP20187]
percentage of iCasp+ cells [5]: 45%

Cc1ccc(-c2nn(C(C)(C)C)c3ncnc(N)c23)cc1 [PP1-inhibitor]
specific lysis of target cells ([4]; inhibitor 10 nM, 4-hour assay, 82% by untreated CAR-T cells): 62.4%

B1: SLAMF7 CAR with CD28 costimulatory domain (receptor)
chain: EVQLVESGGGLVQPGGSLRLSCAASGFDFSRYWMSWVRQAPGKGLEWIGEINPDSSTINYAPSLKDKFIISRDNAKNSLYLQMNSLRAEDTAVYYCARPDGNYWYFDVWGQGTLVTVSSGGGGSGGGGSGGGGSDIQMTQSPSSLSASVGDRVTITCKASQDVGIAVAWYQQKPGKVPKLLIYWASTRHTGVPDRFSGSGSGTDFTLTISSLQPEDVATYYCQQYSSYPYTFGQGTKVEIKESKYGPPCPPCPAPPVAGPSVFLFPPKPKDTLMISRTPEVTCVVVDVSQEDPEVQFNWYVDGVEVHNAKTKPREEQFQSTYRVVSVLTVLHQDWLNGKEYKCKVSNKGLPSSIEKTISKAKGQPREPQVYTLPPSQEEMTKNQVSLTCLVKGFYPSDIAVEWESNGQPENNYKTTPPVLDSDGSFFLYSRLTVDKSRWQEGNVFSCSVMHEALHNHYTQKSLSLSLGKMFWVLVVVGGVLACYSLLVTVAFIIFWVRSKRSRGGHSDYMNMTPRRPGPTRKHYQPYAPPRDFAAYRSRVKFSRSADAPAYQQGQNQLYNELNLGRREEYDVLDKRRGRDPEMGGKPRRKNPQEGLYNELQKDKMAEAYSEIGMKGERRRGKGHDGLYQGLSTATKDTYDALHMQALPPR
specific lysis of K562/SLAMF7 target cells by CD8+ CAR-T cells without dasatinib, t=6 h [6]: 67% | specific lysis of K562/SLAMF7 target cells by CD8+ CAR-T cells without dasatinib, t=12 h [6]: 85%

B2: ROR1 CAR with 4-1BB costimulatory domain (receptor)
chain: QVQLVESGGALVQPGGSLTLSCKASGFDFSAYYMSWVRQAPGKGLEWIATIYPSSGKTYYAASVQGRFTISADNAKNTVYLQMNSLTAADTATYFCARDSYADDGALFNIWGQGTLVTVSSGGGGSGGGGSGGGGSQLVLTQSPSVSAALGSSAKITCTLSSAHKTDTIDWYQQLAGQAPRYLMYVQSDGSYEKRSGVPDRFSGSSSGADRYLIISSVQADDEADYYCGADYIGGYVFGGGTQLTVGESKYGPPCPPCPMFWVLVVVGGVLACYSLLVTVAFIIFWVKRGRKKLLYIFKQPFMRPVQTTQEEDGCSCRFPEEEEGGCELRVKFSRSADAPAYQQGQNQLYNELNLGRREEYDVLDKRRGRDPEMGGKPRRKNPQEGLYNELQKDKMAEAYSEIGMKGERRRGKGHDGLYQGLSTATKDTYDALHMQALPPR
IFN-γ in supernatant (ELISA) of co-culture with RCH-ACV target cells, untreated CD8+ CAR-T cells [7]: 1310 pg/mL | proliferation index (CFSE) after 72 h co-culture with RCH-ACV, untreated CD8+ CAR-T cells [7]: 2.84 | specific lysis of K562/ROR1 target cells by CD8+ CAR-T cells without dasatinib, t=10 h [7]: 94% | specific lysis of K562/ROR1 target cells by CD8+ CAR-T cells without dasatinib, up to t=5 h [7]: 73% | specific lysis of RCH-ACV target cells by untreated CD8+ CAR-T cells, t=8 hours [7]: > 90%

B3: SLAMF7 CAR with 4-1BB costimulatory domain (receptor)
chain: EVQLVESGGGLVQPGGSLRLSCAASGFDFSRYWMSWVRQAPGKGLEWIGEINPDSSTINYAPSLKDKFIISRDNAKNSLYLQMNSLRAEDTAVYYCARPDGNYWYFDVWGQGTLVTVSSGGGGSGGGGSGGGGSDIQMTQSPSSLSASVGDRVTITCKASQDVGIAVAWYQQKPGKVPKLLIYWASTRHTGVPDRFSGSGSGTDFTLTISSLQPEDVATYYCQQYSSYPYTFGQGTKVEIKESKYGPPCPPCPAPPVAGPSVFLFPPKPKDTLMISRTPEVTCVVVDVSQEDPEVQFNWYVDGVEVHNAKTKPREEQFQSTYRVVSVLTVLHQDWLNGKEYKCKVSNKGLPSSIEKTISKAKGQPREPQVYTLPPSQEEMTKNQVSLTCLVKGFYPSDIAVEWESNGQPENNYKTTPPVLDSDGSFFLYSRLTVDKSRWQEGNVFSCSVMHEALHNHYTQKSLSLSLGKMFWVLVVVGGVLACYSLLVTVAFIIFWVKRGRKKLLYIFKQPFMRPVQTTQEEDGCSCRFPEEEEGGCELRVKFSRSADAPAYQQGQNQLYNELNLGRREEYDVLDKRRGRDPEMGGKPRRKNPQEGLYNELQKDKMAEAYSEIGMKGERRRGKGHDGLYQGLSTATKDTYDALHMQALPPR
specific lysis of K562/SLAMF7 target cells by CD8+ CAR-T cells without dasatinib, t=6 h [6]: 63% | specific lysis of K562/SLAMF7 target cells by CD8+ CAR-T cells without dasatinib, t=12 h [6]: 83%
